Usually Kd stands for a measure of binding affinity in units of concentration.

Consider one molecule from paper PMC3040172, “The Impact of the C-Terminal Domain on the Interaction of Human DNA Topoisomerase II α and β with DNA”.

Common to all, as to conditions: protein: recombinant; chain copies: 2; blunt; as printed S2 is not the exact complement of S1: 2 mismatches at S1 positions 34-35 (possible typo)
Data set [1] deals with T1, DNA topoisomerase II beta, full length (human, UniProt Q02880 1-1626). Briefly: fluorescence anisotropy; 10 mM CaCl2; 50 mM Tris pH 8, 5% glycerol, 50 mM KCl, 1% Triton X-100, 100 µg/ml acetylated BSA, 20°C; HEX oligo printed as 1 µM; 10 mM MgCl2 or CaCl2 where described. For orientation: Fluorescence polarisation rises when a labelled molecule tumbles more slowly, as on binding a larger partner.

Data set [2] concerns the target T2, DNA topoisomerase II alpha, full length (human, UniProt P11388 1-1531). The description is as above.
Data set [3] deals with T1, DNA topoisomerase II beta, full length. Description: fluorescence anisotropy; 50 mM Tris pH 8, 5% glycerol, 50 mM KCl, 1% Triton X-100, 100 µg/ml acetylated BSA, 20°C; HEX oligo printed as 1 µM; 10 mM MgCl2 or CaCl2 where described.
Data set [4] has as its target Truncated topoisomerase II alpha (C-terminal domain deleted) (human, UniProt P11388 29-1242). Described as above.
Data set [5] deals with Truncated topoisomerase II beta (C-terminal domain deleted) (human, UniProt Q02880 51-1268). Described as above.
In data set [6] the target is T2, DNA topoisomerase II alpha, full length. The data set is described as above.
Data set [7] addresses T1, DNA topoisomerase II beta, full length. Description: fluorescence anisotropy; 10 mM MgCl2; 50 mM Tris pH 8, 5% glycerol, 50 mM KCl, 1% Triton X-100, 100 µg/ml acetylated BSA, 20°C; HEX oligo printed as 1 µM; 10 mM MgCl2 or CaCl2 where described.
Data set [8] addresses T2, DNA topoisomerase II alpha, full length. The description is as above.
In data set [9] the target is T1, DNA topoisomerase II beta, full length. Description: fluorescence anisotropy; no metal; 50 mM Tris pH 8, 5% glycerol, 50 mM KCl, 1% Triton X-100, 100 µg/ml acetylated BSA, 20°C; HEX oligo printed as 1 µM; 10 mM MgCl2 or CaCl2 where described.
In data set [10] the target is T2, DNA topoisomerase II alpha, full length. The description is as above.

T1 sequence (Q02880 whole entry): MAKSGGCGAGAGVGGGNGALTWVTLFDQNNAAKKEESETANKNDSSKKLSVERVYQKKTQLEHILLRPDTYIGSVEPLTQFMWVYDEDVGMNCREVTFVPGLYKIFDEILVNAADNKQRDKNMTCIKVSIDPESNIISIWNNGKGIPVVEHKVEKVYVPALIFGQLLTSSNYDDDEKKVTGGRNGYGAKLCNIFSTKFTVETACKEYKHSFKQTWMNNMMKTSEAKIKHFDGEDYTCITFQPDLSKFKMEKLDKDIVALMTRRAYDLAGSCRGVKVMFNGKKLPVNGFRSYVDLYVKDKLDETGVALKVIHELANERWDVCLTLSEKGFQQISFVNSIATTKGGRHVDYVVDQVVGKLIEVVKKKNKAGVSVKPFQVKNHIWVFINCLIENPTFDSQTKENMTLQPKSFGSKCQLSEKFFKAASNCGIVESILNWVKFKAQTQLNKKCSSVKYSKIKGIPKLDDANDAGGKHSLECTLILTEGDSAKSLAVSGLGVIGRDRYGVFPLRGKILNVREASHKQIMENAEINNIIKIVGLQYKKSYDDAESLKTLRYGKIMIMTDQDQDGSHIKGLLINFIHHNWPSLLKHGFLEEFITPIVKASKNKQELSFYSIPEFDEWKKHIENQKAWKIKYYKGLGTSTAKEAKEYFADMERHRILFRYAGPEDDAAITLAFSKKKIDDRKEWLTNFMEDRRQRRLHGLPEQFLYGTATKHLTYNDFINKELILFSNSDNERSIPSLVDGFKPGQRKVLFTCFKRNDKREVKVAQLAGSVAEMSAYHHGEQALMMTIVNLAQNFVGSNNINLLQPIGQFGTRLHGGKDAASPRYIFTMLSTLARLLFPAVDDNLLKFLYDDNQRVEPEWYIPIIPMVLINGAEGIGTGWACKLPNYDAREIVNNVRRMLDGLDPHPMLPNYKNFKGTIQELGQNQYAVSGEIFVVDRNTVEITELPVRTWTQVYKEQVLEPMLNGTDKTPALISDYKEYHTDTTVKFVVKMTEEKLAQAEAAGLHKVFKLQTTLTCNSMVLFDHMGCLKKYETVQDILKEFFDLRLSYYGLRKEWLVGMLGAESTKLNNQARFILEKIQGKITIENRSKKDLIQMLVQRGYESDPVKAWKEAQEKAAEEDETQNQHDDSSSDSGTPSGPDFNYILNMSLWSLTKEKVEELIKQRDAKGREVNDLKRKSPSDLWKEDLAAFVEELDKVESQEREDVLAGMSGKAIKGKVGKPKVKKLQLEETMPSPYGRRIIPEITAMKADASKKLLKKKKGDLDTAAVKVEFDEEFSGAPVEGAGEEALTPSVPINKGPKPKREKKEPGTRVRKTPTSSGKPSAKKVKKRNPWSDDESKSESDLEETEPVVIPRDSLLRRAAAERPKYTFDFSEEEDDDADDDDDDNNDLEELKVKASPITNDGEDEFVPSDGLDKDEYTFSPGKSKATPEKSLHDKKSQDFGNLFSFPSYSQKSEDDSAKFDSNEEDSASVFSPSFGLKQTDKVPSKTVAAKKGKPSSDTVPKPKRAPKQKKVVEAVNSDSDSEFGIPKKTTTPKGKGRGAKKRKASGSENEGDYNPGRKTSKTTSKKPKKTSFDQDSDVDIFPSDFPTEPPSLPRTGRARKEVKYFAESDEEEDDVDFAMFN
T2 sequence (P11388 whole entry): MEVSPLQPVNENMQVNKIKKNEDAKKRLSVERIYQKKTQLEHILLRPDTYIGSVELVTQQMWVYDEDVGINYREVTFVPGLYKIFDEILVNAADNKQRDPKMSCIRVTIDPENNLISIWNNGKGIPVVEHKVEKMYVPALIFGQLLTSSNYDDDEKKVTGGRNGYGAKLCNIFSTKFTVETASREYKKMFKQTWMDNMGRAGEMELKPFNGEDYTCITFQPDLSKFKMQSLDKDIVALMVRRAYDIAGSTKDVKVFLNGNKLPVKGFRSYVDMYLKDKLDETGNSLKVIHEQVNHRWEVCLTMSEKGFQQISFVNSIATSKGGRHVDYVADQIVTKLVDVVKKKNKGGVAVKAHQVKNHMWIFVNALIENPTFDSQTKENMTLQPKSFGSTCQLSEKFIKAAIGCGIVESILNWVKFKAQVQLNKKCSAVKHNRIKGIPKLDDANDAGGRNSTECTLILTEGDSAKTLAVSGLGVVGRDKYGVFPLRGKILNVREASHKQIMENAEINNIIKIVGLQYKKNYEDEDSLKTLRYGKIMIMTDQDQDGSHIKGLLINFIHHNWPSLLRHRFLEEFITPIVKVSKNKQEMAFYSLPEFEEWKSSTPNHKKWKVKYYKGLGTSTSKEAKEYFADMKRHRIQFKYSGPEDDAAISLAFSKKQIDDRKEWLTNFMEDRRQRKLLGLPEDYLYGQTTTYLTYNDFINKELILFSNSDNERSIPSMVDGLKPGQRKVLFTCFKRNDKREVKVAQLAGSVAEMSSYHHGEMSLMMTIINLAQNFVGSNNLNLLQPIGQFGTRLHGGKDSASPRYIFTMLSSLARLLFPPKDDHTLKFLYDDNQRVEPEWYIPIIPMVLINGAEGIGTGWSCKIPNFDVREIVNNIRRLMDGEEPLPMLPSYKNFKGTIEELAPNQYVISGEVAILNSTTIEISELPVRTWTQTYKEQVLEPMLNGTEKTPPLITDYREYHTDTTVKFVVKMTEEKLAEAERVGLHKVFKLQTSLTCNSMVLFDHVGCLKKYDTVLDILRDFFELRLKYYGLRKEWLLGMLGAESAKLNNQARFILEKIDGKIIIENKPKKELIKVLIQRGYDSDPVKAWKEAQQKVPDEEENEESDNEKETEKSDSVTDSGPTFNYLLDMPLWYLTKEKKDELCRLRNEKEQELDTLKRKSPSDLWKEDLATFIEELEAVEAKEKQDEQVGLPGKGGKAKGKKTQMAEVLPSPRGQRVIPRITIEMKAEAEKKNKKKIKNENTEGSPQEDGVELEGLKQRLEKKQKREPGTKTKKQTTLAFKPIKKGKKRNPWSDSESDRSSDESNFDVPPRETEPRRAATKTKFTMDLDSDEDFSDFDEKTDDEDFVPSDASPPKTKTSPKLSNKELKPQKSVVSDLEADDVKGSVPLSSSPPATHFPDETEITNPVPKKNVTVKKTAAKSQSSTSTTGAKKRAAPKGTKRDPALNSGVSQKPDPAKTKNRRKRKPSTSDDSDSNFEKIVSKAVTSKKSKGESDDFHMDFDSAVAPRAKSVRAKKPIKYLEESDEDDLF
Chain of Truncated topoisomerase II beta (C-terminal domain deleted) (Q02880 51-1268, stated change not applied): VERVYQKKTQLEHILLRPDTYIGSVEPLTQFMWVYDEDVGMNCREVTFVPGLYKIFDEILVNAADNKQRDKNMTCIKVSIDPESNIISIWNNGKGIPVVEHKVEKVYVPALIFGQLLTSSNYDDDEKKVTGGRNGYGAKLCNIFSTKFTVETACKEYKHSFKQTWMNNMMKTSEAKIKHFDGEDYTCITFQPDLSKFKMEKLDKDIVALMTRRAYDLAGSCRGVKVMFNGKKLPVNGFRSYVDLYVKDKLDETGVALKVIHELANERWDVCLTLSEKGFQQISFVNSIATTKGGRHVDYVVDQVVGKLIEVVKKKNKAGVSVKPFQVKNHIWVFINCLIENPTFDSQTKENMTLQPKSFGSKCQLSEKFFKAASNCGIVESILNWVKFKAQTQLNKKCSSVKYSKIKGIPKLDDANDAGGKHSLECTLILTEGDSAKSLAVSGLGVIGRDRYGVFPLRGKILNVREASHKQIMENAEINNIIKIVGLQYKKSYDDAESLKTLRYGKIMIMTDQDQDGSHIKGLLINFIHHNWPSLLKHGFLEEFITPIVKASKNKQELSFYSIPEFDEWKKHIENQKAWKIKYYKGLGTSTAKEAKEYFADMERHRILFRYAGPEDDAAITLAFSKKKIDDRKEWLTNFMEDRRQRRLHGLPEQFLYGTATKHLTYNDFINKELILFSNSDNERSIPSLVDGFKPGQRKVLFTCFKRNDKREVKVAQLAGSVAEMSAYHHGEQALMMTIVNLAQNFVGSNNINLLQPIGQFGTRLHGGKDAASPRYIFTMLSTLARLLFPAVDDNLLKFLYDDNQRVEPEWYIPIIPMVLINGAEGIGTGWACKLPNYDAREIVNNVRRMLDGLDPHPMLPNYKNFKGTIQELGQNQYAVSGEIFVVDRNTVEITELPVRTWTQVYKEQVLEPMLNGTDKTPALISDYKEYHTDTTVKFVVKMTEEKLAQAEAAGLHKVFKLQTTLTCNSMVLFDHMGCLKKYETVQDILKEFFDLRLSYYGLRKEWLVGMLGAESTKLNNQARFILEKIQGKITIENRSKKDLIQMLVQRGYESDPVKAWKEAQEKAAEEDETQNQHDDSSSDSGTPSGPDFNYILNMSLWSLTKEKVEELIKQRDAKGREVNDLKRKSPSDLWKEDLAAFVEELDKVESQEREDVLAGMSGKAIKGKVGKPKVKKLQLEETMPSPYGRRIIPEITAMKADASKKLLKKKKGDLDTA

B1: 40 bp oligo AB (dsDNA)
DNA 1: CGCAATCTGACAATGCGCTCATCGTCATCCTCGCGACGCG
DNA 2: CGCGTGCCGAGGATGACGATGAGCGCATTGTCAGATTGCG
In the case of B1, the Kd in data set [1] was 84.3 nM; in data set [2] it was 178 nM; in data set [3], 72.9 nM; in data set [4], 116 nM; in data set [5], 17.8 nM; in data set [6], 189 nM. For the same molecule, the Kd was found to be 55.4 nM in [7], 150 nM in [8], 46.4 nM in [9] and 160 nM in data set [10].
